The data set concerns the molecule itself. The data set is described as follows: co-sedimentation; pelleting assay; each protein at 1 µM in polymerization buffer (10 mM Tris-HCl pH 7.5, 25 mM KCl, 2 mM MgCl2, 1 mM DTT) with 1 mM ATP, 25°C for 10 min, 100,000 x g for 30 min at 4°C; SDS-PAGE of pellet and supernatant.

B1: MamK (untagged recombinant) (natural protein, Magnetospirillum magneticum AMB-1, UniProt Q2W8Q6 1-347, looked up)
chain: MSEGEGQAKNRLFLGIDLGTSHTAVMSSRGKKFLLKSVVGYPKDVIGLKLLGRPYVVGDEAFEMRSYLDIRYPLQDGVLSEISDRDIEVARHLLTHVVKSAEPGPNDEICAVIGVPARASAANKALLLKMAQEVVHTALVVSEPFMVGYGLDKLINTIIVDIGAGTTDICALKGTVPGPEDQVTLTKAGNYVDERLQNAILERHPELQMNVNVACAVKEQFSFVGTPTEVASFEFRAAGKPVRADVTEPVKIACEALMPDIIESIETLLRSFQPEYQATVLQNIVFAGGGSRIRGLAAYVKEKLRPFGDANVTCVKDPTFDGCRGALRLAEELPPQYWRQLGDVSGS
notes: MamK, bacterial actin-like protein of Magnetospirillum magneticum AMB-1; untagged; printed as 37.6 kDa; monomeric fractions were pooled; it forms filaments with ATP in polymerization buffer; also called purified MamK; MamK filaments; source: E. coli BL21, purified (ammonium sulfate precipitation, anion exchange, gel filtration)
For the protein B1, the binding result was “binds”.

Values taken from paper PMC13170167, “Magnetosome organelles are organized through interactions between McaA and McaB that alter the dynamics of the bacterial actin-like protein MamK” (mBio, 2026).
